{"source": "paper PMC3439536", "molecular_target": "CR2 SCR1-4-BCCP (Homo sapiens, UniProt P20023 21-273)", "sequence (P20023 21-273)": "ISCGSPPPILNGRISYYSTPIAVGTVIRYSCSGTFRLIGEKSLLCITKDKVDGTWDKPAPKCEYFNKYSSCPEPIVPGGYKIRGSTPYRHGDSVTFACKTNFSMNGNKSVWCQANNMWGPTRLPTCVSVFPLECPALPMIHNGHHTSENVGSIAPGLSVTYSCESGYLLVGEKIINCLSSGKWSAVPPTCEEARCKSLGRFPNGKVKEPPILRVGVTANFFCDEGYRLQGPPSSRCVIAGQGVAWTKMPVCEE", "assay": "SPR"}
{"binder": "16bp scrambled DNA (dsDNA) DNA 1: ATGCATGCTGACTACG DNA 2: CGTAGTCAGCATGCAT", "values": [{"measurement": "Kd", "value": 266, "unit": "nM"}]}
{"binder": "25bp adenoviral E1a DNA (dsDNA) DNA 1: TTCTATGCCAAACCTTGTGCCGGAG DNA 2: CTCCGGCACAAGGTTTGGCATAGAA", "values": [{"measurement": "Kd", "value": 358, "unit": "nM"}]}
{"binder": "50% CpG rich DNA (dsDNA) DNA 1: TTCGATCGCACGCCCG DNA 2: CGGGCGTGCGATCGAA", "values": [{"measurement": "Kd", "value": 509, "unit": "nM"}]}
{"binder": "15bp adenoviral E1a DNA (dsDNA) DNA 1: TTCTATGCCAAACCT DNA 2: AGGTTTGGCATAGAA", "values": [{"measurement": "Kd", "value": 245, "unit": "nM"}]}
